Consider 17 molecules from patent US20250368978A1, “SQUALENE HOPENE CYCLASE VARIANTS FOR PRODUCING SCLAREOLIDE” (INTERNATIONAL FLAVORS & FRAGRANCES INC., priority 2022, published 2025).

A short description of this data set: SHC variant screening reactions: conversion of HFA to sclareolide by freeze-dried whole cells, GC analysis. Type of data set: biochemical, Gluconobacter morbifer. Conditions: for Fold improvements (sclareolide production): 20 mg/mL HFA, 50% enzyme loading, relative to initial mutant; for Fold improvement (sclareolide production): based on % peak area, relative to V45L+Q54E+I278T+T326S variant, no metal ions. Here is the method:
SHC Variant Enzyme Expression. Wild-type and the GmSHC variants of Table 5 were individually cloned into pET28a(+). These DNA constructs were transformed into Lemo21 (DE3) E. coli and plated onto agar plates containing Kanamycin. These were incubated overnight at 37° C. A single bacterial colony was picked and used to inoculate 10 mL LB+Kanamycin in a 50 mL falcon tube. This primary culture was incubated overnight at 37° C. with agitation. These cultures (10 mL) were used to inoculate 1L LB+Kanamycin in a shake flask, which was subsequently incubated at 37° C. at 180 rpm for about 4 hours. Protein expression was then induced with the addition of 0.4 mM IPTG and 0.2 mM L-rhamnose. The incubator temperature was lowered to 25° C. and the cultures further incubated at 180 rpm overnight. The next day, the cultures were centrifuged at 4000 rpm for 10 minutes and the supernatant discarded. Cell pellets were resuspended in 0.1 M Potassium phosphate buffer pH 7.4 and exposed to 1 round of freeze/thawing before lyophilization and then use in the reaction assay.
SHC Variant Screening Reactions. Sodium citrate buffer 0.2 M, pH 5 was prepared and 500 μL of this buffer was added to freeze-dried whole cells of each variant (from 1 L shake flask fermentation of E. coli transformed with desired variant plasmid). The results were obtained with an enzyme loading of 50% (w/w). Subsequently, HFA (20 mg/mL) was added to the buffer/enzyme mix. The reactions were incubated at 25° C. with agitation for 72 hours. To stop the reaction and extract the products, a 2X volume of 3:2, heptane: isopropanol was added to each reaction. These were then incubated at 37° C. for 30 minutes with agitation to mix thoroughly. The reactions were centrifuged for 10 minutes at 4000 rpm to pellet any cellular material. The upper organic layer was then removed and placed in a clean gas chromatography (GC) vial.
GC Analysis Method. A GC analytical method was used to detect each of the starting materials and products used in the screening reactions. Due to the volume of samples generated, a fast method was developed with a run time of only 4.5 minutes.
No metal ions were included in the reaction.
Further analysis was conducted to identify one or more optimal SHC enzymes. In particular, substrate loading was increased to 20 mg/mL and incubation with a reduced enzyme loading (50%).

Setting [1] is: 10 mg/mL HFA, 100% enzyme loading.

Residue numbers refer to the chain shown, from its start. Names may count otherwise.

B1: WT: wild-type squalene hopene cyclase from Gluconobacter morbifer, SEQ ID NO: 1 / SEQ ID NO: 2 (protein)
chain: MSPADISTKSSSFQRLDNMLPEAVSSACDWLIDQQKPDGHWVGPVESNACMEAQWCLALWFLGQEDHPLRPRLAQALLEMQREDGSWGIYVGADHGDINTTVEAYAALRSMGYAADMPIMAKSAAWIQQKGGLRNVRVFTRYWLALIGEWPWDKTPNLPPEIIWLPDNFIFSIYNFAQWARATMMPLTILSARRPSRPLLPENRLDGLFPEGRENFDYELPVKGEEDLWGRFFRAADKGLHSLQSFPVRRFVPREAAIRHVIEWIIRHQDADGGWGGIQPPWIYGLMALSVEGYPLHHPVLAKAMDALNDPGWRRDKGDASWIQATNSPVWDTMLAVLALHDAGAEDRYSPQMDKAIGWLLDRQVRVKGDWSIKLPDTEPGGWAFEYANDKYPDTDDTAVALIALAGCRHRPEWRERDIEGAISRGVNWLLAMQSSSGGWGAFDKDNNRSILTKIPFCDFGEALDPPSVDVTAHVLEAFGLLGISRNHPSVQKALAYIRSEQERNGAWFGRWGVNYVYGTGAVLPALAAIGEDMTQPYIVRACDWLMSVQQENGGWGESCASYMDINAVGHGVATASQTAWALIGLLAAKRPKDREAIARGCQFLIERQEDGSWTEEEYTGTGFPGYGVGQAIKLDDPSLPDRLLQGAELSRAFMLRYDLYRQYFPVMALSRARRMMKEDASAAA
modifications: Gluconobacter morbifer
Take B1: the “conversion of HFA to sclareolide” value under setting [1] is on record as “did not show any conversion”.

B2: V45L + Q54E + V222Q + R249R + I278T + T326S + A683E: GmSHC variant with these substitutions relative to SEQ ID NO: 2 (protein)
chain: B1 chain with V45L, Q54E, V222Q, I278T, T326S, A683E
modifications: Gluconobacter morbifer
B2: the “Fold improvements (sclareolide production)” value (“Fold improvements” for short) is on record as 44.6 Fold.

B3: V45L + Q54E + I278T + T326S: GmSHC variant, first mutant enzyme which showed formation of sclareolide (protein)
chain: B1 chain with V45L, Q54E, I278T, T326S
For the molecule B3, the “Fold improvements” value was found to be 0 Fold. The “Fold improvement (sclareolide production)” value under setting [1] is recorded as -0- Fold.

B4: V45L + Q54E + V222K + R249R + I278T + T326S: GmSHC variant with these substitutions relative to SEQ ID NO: 2 (protein)
chain: B1 chain with V45L, Q54E, V222K, I278T, T326S
modifications: Gluconobacter morbifer
For the molecule B4, the “Fold improvements” value is on record as 33.2 Fold.

B5: V45L + Q54E + R249R + I278T + T326S + A574A: GmSHC variant with these substitutions relative to SEQ ID NO: 2 (protein)
chain: B1 chain with V45L, Q54E, I278T, T326S
modifications: Gluconobacter morbifer
Consider B5, for which the “Fold improvements” value is 27 Fold.

B6: V45L + Q54E + Q178S + V222R + 1278T + T326S: GmSHC variant with these substitutions relative to SEQ ID NO: 2 (protein)
chain: B1 chain with V45L, Q54E, Q178S, V222R, I278T, T326S
modifications: Gluconobacter morbifer
In the case of B6, the “Fold improvements” value amounted to 43.8 Fold.

B7: V45L + Q54E + V222K + I278T + T326S: GmSHC variant with these substitutions relative to SEQ ID NO: 2 (protein)
chain: B1 chain with V45L, Q54E, V222K, I278T, T326S
modifications: Gluconobacter morbifer
With B7, the “Fold improvements” value is recorded as 12 Fold. Further, the “Fold improvement (sclareolide production)” value under setting [1] is 5.4 Fold.

B8: V45L + Q54E + V222K + I278S + T326S: GmSHC variant with these substitutions relative to SEQ ID NO: 2 (protein)
chain: B1 chain with V45L, Q54E, V222K, I278S, T326S
modifications: Gluconobacter morbifer
On to B8, for which the “Fold improvements” value is recorded as 28.4 Fold. For the same molecule, the “Fold improvement (sclareolide production)” value under setting [1] was determined as 7.4 Fold.

B9: V45L + Q54E + M184T + R249R + I278T + T326S: GmSHC variant with these substitutions relative to SEQ ID NO: 2 (protein)
chain: B1 chain with V45L, Q54E, M184T, I278T, T326S
modifications: Gluconobacter morbifer
Consider B9, for which the “Fold improvement (sclareolide production)” value under setting [1] was 3.3 Fold.

B10: V45L + Q54E + V222R + I278T + T326S + R348R: GmSHC variant with these substitutions relative to SEQ ID NO: 2 (protein)
chain: B1 chain with V45L, Q54E, V222R, I278T, T326S
modifications: Gluconobacter morbifer
As to B10, the “Fold improvements” value was determined as 60 Fold.

B11: V45L + Q54E + V222K + I278A + T326S: GmSHC variant with these substitutions relative to SEQ ID NO: 2 (protein)
chain: B1 chain with V45L, Q54E, V222K, I278A, T326S
modifications: Gluconobacter morbifer
In the case of B11, the “Fold improvements” value stood at 20.4 Fold.

B12: V45L + Q54E + V222R + I278T + T326S: GmSHC variant with these substitutions relative to SEQ ID NO: 2 (protein)
chain: B1 chain with V45L, Q54E, V222R, I278T, T326S
modifications: Gluconobacter morbifer
On to B12, for which the “Fold improvements” value is recorded as 27 Fold. For the same molecule, the “Fold improvement (sclareolide production)” value under setting [1] is 4.2 Fold.

B13: V45L + Q54E + R249R + I278T + T326S: GmSHC variant with these substitutions relative to SEQ ID NO: 2; R249R is a silent mutation (protein)
chain: B1 chain with V45L, Q54E, I278T, T326S
modifications: Gluconobacter morbifer
notes: R249R is a silent mutation
B13: the “Fold improvements” value was found to be 7 Fold. Also, the “Fold improvement (sclareolide production)” value under setting [1] was 4.2 Fold.

B14: V45L + Q54E + Q178S + V222K + I278S + T326S: GmSHC variant with these substitutions relative to SEQ ID NO: 2 (protein)
chain: B1 chain with V45L, Q54E, Q178S, V222K, I278S, T326S
modifications: Gluconobacter morbifer
Consider B14, for which the “Fold improvements” value was determined as 37.3 Fold.

B15: V45L + Q54E + R249R + I278A + T326S: GmSHC variant with these substitutions relative to SEQ ID NO: 2 (protein)
chain: B1 chain with V45L, Q54E, I278A, T326S
modifications: Gluconobacter morbifer
For B15, the “Fold improvements” value is recorded as 25.6 Fold.

B16: V45L + Q54E + V222Q + R249R + I278T + T326S: GmSHC variant with these substitutions relative to SEQ ID NO: 2 (protein)
chain: B1 chain with V45L, Q54E, V222Q, I278T, T326S
modifications: Gluconobacter morbifer
In the case of B16, the “Fold improvements” value was found to be 30.3 Fold. For the same molecule, the “Fold improvement (sclareolide production)” value under setting [1] came out at 3.9 Fold.

B17: V45L + Q54E + V222Q + Y284W + R249R + 1278T + T326S: GmSHC variant with these substitutions relative to SEQ ID NO: 2 (protein)
chain: B1 chain with V45L, Q54E, V222Q, I278T, Y284W, T326S
modifications: Gluconobacter morbifer
As for B17, the “Fold improvements” value is reported as 46.2 Fold.
